Measured values published in patent US20120244615A1.

Molecular target: tetrodotoxin (TTX)-resistant variant of sodium channel Nav1.6
Test: cell-based or functional assay

Work on “full-length FHF2A protein (from UniProt Q92913 1-245)” yielded a channels not recovering from inactivation within 20 msec (two-pulse whole cell voltage clamp, FIG. 2) (fraction of channels) of 0.33 and a percent of channels undergoing long-term inactivation (voltage dependence protocol, FIG. 4) of 35 to 40%.
